# Data as given in US11931401B2, “Runx3 modified protein for prevention or treatment of cancer” (GeneCraft Inc., priority 2020, dated 2024).
# Entries after “also recorded” stand apart in the source; their conditions may differ.
# Tests used:
# BRD2 [1] = molecular target: T1, BRD2 (Homo sapiens, UniProt P25440); experiment: Time for which Runx3 protein forms a complex with Brd2 protein (IP/IB); format: binding; conditions: for time for which physical binding / complex with BRD2 was maintained: IP/IB
# T1 sequence (P25440 whole entry): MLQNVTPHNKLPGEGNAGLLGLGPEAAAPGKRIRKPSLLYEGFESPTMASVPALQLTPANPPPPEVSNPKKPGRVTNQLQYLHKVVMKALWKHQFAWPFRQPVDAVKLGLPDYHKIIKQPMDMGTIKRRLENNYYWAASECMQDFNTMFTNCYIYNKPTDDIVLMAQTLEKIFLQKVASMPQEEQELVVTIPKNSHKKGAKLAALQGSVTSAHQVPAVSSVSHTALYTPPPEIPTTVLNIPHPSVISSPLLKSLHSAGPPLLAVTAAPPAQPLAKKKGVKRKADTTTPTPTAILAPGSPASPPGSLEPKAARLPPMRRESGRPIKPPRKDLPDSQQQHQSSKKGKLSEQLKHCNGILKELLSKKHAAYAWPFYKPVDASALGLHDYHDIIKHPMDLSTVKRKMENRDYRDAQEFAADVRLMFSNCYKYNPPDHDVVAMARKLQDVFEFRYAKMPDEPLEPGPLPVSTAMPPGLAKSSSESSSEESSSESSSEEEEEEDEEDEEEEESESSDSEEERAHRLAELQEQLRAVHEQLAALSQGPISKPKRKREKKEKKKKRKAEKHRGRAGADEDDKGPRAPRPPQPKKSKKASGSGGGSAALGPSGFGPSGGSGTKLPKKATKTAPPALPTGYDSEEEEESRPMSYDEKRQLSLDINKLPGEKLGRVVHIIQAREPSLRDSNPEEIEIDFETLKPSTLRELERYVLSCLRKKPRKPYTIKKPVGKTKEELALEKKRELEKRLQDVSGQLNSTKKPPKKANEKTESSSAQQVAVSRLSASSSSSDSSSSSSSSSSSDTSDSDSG
# Protocol: The modified protein in which the 356th amino acid of Runx3 is substituted with alanine blocks the physical binding between Runx3 and CDK4, thereby inhibiting the phosphorylation of the 356th serine of Runx3 by CDK4. By inhibiting the conversion of the Rpa-Rx3-AC complex including Runx3 to the Rpa-Rx3-TR complex, the function of maintaining the anticancer activity of Runx3 is improved. Thus, the following experiment was performed to compare the time for the modified protein in which the 356th amino acid of Runx3 is substituted with alanine to form a complex by binding to Brd2 protein with the wild-type Runx3.
# Particularly, the antibody targeting RUNX3 (5G4) (Cat #ab40278) was obtained from Abcam (Cambridge, UK), and the antibody was diluted 1:3000. BRD2 (M01; 1:1000; Cat #H00006046-M01, Abnova, Taipei City, Taiwan) was used for immunoblotting and immunoprecipitation.
# [2] = tested on: stomach cancer cell lines; experiment: Apoptosis by flow cytometry (FITC-Annexin V / propidium iodide), stomach cancer cell lines; format: cell-based; conditions: stomach (gastric) cancer cell lines; listed as modified protein in which the 356th serine of Runx3 is substituted with alanine
# Protocol: (§1) Each cell line was cultured in a 10 cm culture dish (5×10^5 cells) for 2 days and then approximately 2×10^6 cells of each cell line was infected with 1×10^8 VP of adenovirus or adenovirus Runx3 or adenovirus Runx3 S356A. After 48 hours, the cell death rate was measured by flow cytometry.
# lung cancer cell lines = experiment: Apoptosis by flow cytometry (FITC-Annexin V / propidium iodide), lung cancer cell lines; format: cell-based
# Protocol: as §1
# BRD2 [3] = molecular target: T1, BRD2; experiment: Time-dependent BRD2-RUNX3 complex formation after serum stimulation by immunoprecipitation (IP) and immunoblotting (IB); format: binding; conditions: overexpressed Myc-tagged protein; FIG. 1
# Protocol: The antibody targeting RUNX3 (5G4) (Cat #ab40278) was obtained from Abcam (Cambridge, UK), and the antibody was diluted 1:3000. BRD2 (M01; 1:1000; Cat #H00006046-M01, Abnova, Taipei City, Taiwan) was used for immunoblotting and immunoprecipitation.
# RUNX3 phosphorylation in serine, the 356th amino acid of Runx3 protein, was measured by immunoprecipitation (IP) and immunoblotting (IB) in the same manner as described in Experimental Method 3 above.
# [4] = tested on: pancreatic cancer cell lines; experiment: Apoptosis by flow cytometry (FITC-Annexin V / propidium iodide), pancreatic cancer cell lines; format: cell-based; conditions: listed as modified protein in which the 356th serine of Runx3 is substituted with alanine
# Protocol: as §1
Molecule,time for which physical binding / complex with BRD2 was maintained (BRD2 [1]),cancer cell death efficacy compared to the wild-type Runx3 protein (in words) [2],cancer cell killing compared to the wild-type Runx3 protein (in words) (lung cancer cell lines),increase of apoptosis rate compared to the wild-type Runx3 protein (lung cancer cell lines; flow cytometry) [times],time for which binding with BRD2 was maintained after the serum stimulation (BRD2 [3]) [h],cancer cell death efficacy compared to the wild-type Runx3 protein (in words) [4],time after which the binding of Runx3 and BRD2 was separated (BRD2 [1]; after the binding) [h]
"S356A: Runx3 modified protein: 356th serine substituted with alanine (TCA→GCA) (protein, Myc tag; Runx3 isoform2 amino acid) MRIPVDPSTSRRFTPPSPAFPCGGGGGKMGENSGALSAQAAVGPGGRARPEVRSMVDVLADHAGELVRTDSPNFLCSVLPSHWRCNKTLPVAFKVVALGDVPDGTVVTVMAGNDENYSAELRNASAVMKNQVARFNDLRFVGRSGRGKSFTLTITVFTNPTQVATYHRAIKVTVDGPREPRRHRQKLEDQTKPFPDRFGDLERLRMRVTPSTPSPRGSLSTTSHFSSQPQTPIQGTSELNPFSDPRQFDRSFPTLPTLTESRFPDPRMHYPGAMSAAFPYSATPSGTSISSLSVAGMPATSRFHHTYLPPPYPGAPQNQSGPFQANPSPYHLYYGTSSGSYQFSMVAGSSSGGDRAPTRMLASCTSSAASVAAGNLMNPSLGGQSDGVEADGSHSNSPTALSTPGRMDEAVWRPY",up to 40 hours,more effective in killing cancer cells; also recorded: further increased the cancer cell death efficacy,more effective in killing cancer cells,≥ 2,≤ 8,more effective in killing cancer cells; also recorded: further increased the cancer cell death efficacy,–
"S356 wild type: Wild-type Runx3 (Runt-related transcription factor 3) protein, 356th serine not substituted; SEQ ID NO: 2 (protein, Runx3 isoform2 amino acid) MRIPVDPSTSRRFTPPSPAFPCGGGGGKMGENSGALSAQAAVGPGGRARPEVRSMVDVLADHAGELVRTDSPNFLCSVLPSHWRCNKTLPVAFKVVALGDVPDGTVVTVMAGNDENYSAELRNASAVMKNQVARFNDLRFVGRSGRGKSFTLTITVFTNPTQVATYHRAIKVTVDGPREPRRHRQKLEDQTKPFPDRFGDLERLRMRVTPSTPSPRGSLSTTSHFSSQPQTPIQGTSELNPFSDPRQFDRSFPTLPTLTESRFPDPRMHYPGAMSAAFPYSATPSGTSISSLSVAGMPATSRFHHTYLPPPYPGAPQNQSGPFQANPSPYHLYYGTSSGSYQFSMVAGSSSGGDRSPTRMLASCTSSAASVAAGNLMNPSLGGQSDGVEADGSHSNSPTALSTPGRMDEAVWRPY",up to 8 hours,–,–,–,–,–,3
